Sequences and labels used below:
B1: POU domain, class 6, transcription factor 2, residues 609 to 663; numbered along this chain, P78424 (parent)
chain: KRRTSFTPQALEILNAHFEKNTHPSGQEMTEIAEKLNYDREVVRVWFCNKRQALK
B2: Homeobox protein cut-like 2, residues 895 to 963; numbered along this chain, O14529 (parent)
chain: EVDTLELTRQVKEKLAKNGICQRIFGEKVLGLSQGSVSDMLSRPKPWSKLTQKGREPFIRMQLWLSDQL

± gives the uncertainty stated by the source.

Variants of B1 are the subject of the first data set. Kind of data set: abundance fitness (aPCA) (normalised: wild type 0, dead -1); higher = more abundant; growth selection in yeast, the domain comes from the species named. To be noted: Homo sapiens.
For R2M, the abundance fitness was found to be 0.064 ± 0.11.
For the variant R2Q, the abundance fitness is 0.026 ± 0.17.
In the case of R2C, the abundance fitness is -0.345 ± 0.11.
Take R2G: the abundance fitness was -0.034 ± 0.065.
Regarding R2E, the abundance fitness is 0.108 ± 0.12.
As to R2W, the abundance fitness was -0.334 ± 0.087.
Regarding R2S, the abundance fitness is 0.106 ± 0.089.
In the case of R2T, the abundance fitness is 0.041 ± 0.089.
For the variant R2H, the abundance fitness was -0.144 ± 0.26.
Same read-out and setting: for R2N the value was 0.095 ± 0.1; for R2P, -0.118 ± 0.13; for R2F, -0.056 ± 0.14.
Turning to R2A, the abundance fitness was found to be 0.038 ± 0.085.
With R2I, the abundance fitness was -0.059 ± 0.12.
For R3E, the abundance fitness stood at 0.043 ± 0.1.
R3I: the abundance fitness is 0.136 ± 0.12.
On the same count and under the same terms, for R3A the value was -0.136 ± 0.076.
Take R3K: the abundance fitness was -0.009 ± 0.14.
In the case of R3D, the abundance fitness came to 0.054 ± 0.12.
On the same count and under the same terms, for R3G the value was -0.035 ± 0.059; for R3F, 0.053 ± 0.11; for R3C, -0.236 ± 0.12.
Consider K1E, for which the abundance fitness is -0.632 ± 0.22.
With K1Y, the abundance fitness was -0.41 ± 0.34.
On the same count and under the same terms, for K1R the value was -0.269 ± 0.12.
As for K1W, the abundance fitness is -0.267 ± 0.16.
Still for that read-out and setting: for K1G the value was 0.157 ± 0.18.
Consider K1T, for which the abundance fitness was -0.077 ± 0.19.
K1N: the abundance fitness worked out at 0.043 ± 0.14.
For the variant K1H, the abundance fitness is -0.309 ± 0.2.
For the variant K1D, the abundance fitness is -0.161 ± 0.15.
Take K1V: the abundance fitness is -0.776 ± 0.3.
For the variant K1A, the abundance fitness was -0.19 ± 0.24.
K1I: the abundance fitness came to 0.111 ± 0.2.
As for K1L, the abundance fitness was -0.465 ± 0.24.
K1S: the abundance fitness is -0.275 ± 0.14.

In the next data set the parent is B2. Described as above. The following applies: Homo sapiens.
With F58N, the abundance fitness was -1.1 ± 0.3.
With V2K, the abundance fitness was determined as 0.017 ± 0.053.
As to S38F, the abundance fitness is -0.221 ± 0.26.
As for P44I, the abundance fitness was -0.113 ± 0.056.
With S33N, the abundance fitness was -0.003 ± 0.069.
Regarding S33A, the abundance fitness is -0.042 ± 0.031.
Turning to S66R, the abundance fitness turned out to be 0.028 ± 0.045.
As for F25W, the abundance fitness is -0.053 ± 0.042.
Still for that read-out and setting: for M61Q the value was -1.02 ± 0.1.
For the variant M61E, the abundance fitness was -1.02 ± 0.17.
Turning to M61L, the abundance fitness is -0.191 ± 0.031.
Turning to M61G, the abundance fitness was -0.735 ± 0.055.
For the variant R23C, the abundance fitness was -0.317 ± 0.091.
As for C21D, the abundance fitness is -0.103 ± 0.099.
Regarding C21P, the abundance fitness came to 0.027 ± 0.057.
C21I: the abundance fitness is -0.115 ± 0.083.
The same measure, in the same setting: for I59H the value was 0.051 ± 0.047; for Q62G, -0.06 ± 0.039; for Q62I, -0.277 ± 0.11.
On to Q62R, for which the abundance fitness came out at 0.015 ± 0.029.
As for Q62K, the abundance fitness was 0.17 ± 0.073.
On to M40N, for which the abundance fitness is -0.473 ± 0.21.
For T4K, the abundance fitness is -0.14 ± 0.035.
With T4A, the abundance fitness is -0.334 ± 0.034.
Consider T4W, for which the abundance fitness was -0.015 ± 0.039.
Still for that read-out and setting: for T4L the value was -0.215 ± 0.027; for G31W, -0.367 ± 0.058; for G31P, -0.378 ± 0.038.
On to G31M, for which the abundance fitness was -0.347 ± 0.068.
As for W64H, the abundance fitness is -1.08 ± 0.14.
Turning to A16P, the abundance fitness was -0.18 ± 0.038.
For the variant A16L, the abundance fitness is -0.109 ± 0.028.
The same measure, in the same setting: for A16E the value was -0.1 ± 0.044.
For T8Y, the abundance fitness is -0.309 ± 0.056.
Take G54T: the abundance fitness is -0.084 ± 0.034.
For the variant G54F, the abundance fitness was -0.048 ± 0.045.
On to R43D, for which the abundance fitness was found to be 0.013 ± 0.08.
In the case of R43N, the abundance fitness was -0.03 ± 0.078.
The same measure, in the same setting: for R43K the value was -0.047 ± 0.07.
As to S42A, the abundance fitness was -0.014 ± 0.11.
In the case of S42L, the abundance fitness was -0.086 ± 0.026.
Take L69G: the abundance fitness was -0.056 ± 0.045.
For E6V, the abundance fitness was -0.191 ± 0.028.
The same measure, in the same setting: for E6N the value was -0.055 ± 0.1; for E6D, 0.096 ± 0.055; for E6I, -0.196 ± 0.077.
On the same count and under the same terms, for Q34R the value was 0.282 ± 0.13.
As to Q34Y, the abundance fitness was -0.05 ± 0.038.
Take Q34F: the abundance fitness was 0.003 ± 0.04.
For Q22E, the abundance fitness was -0.011 ± 0.061.
In the case of Q22D, the abundance fitness is -0.457 ± 0.21.
As to P46L, the abundance fitness was 0.026 ± 0.032.
Turning to P46R, the abundance fitness is -0.057 ± 0.08.
In the case of S48P, the abundance fitness was -0.229 ± 0.034.
With S48L, the abundance fitness was -0.191 ± 0.027.
In the case of V11Y, the abundance fitness is -0.326 ± 0.15.
V11M: the abundance fitness was -0.162 ± 0.041.
In the case of V11Q, the abundance fitness was -0.218 ± 0.04.
Turning to R9E, the abundance fitness is -0.1 ± 0.034.
On the same count and under the same terms, for R9A the value was -0.044 ± 0.033; for R9N, -0.068 ± 0.065.
Same read-out and setting: for R9V the value was -0.15 ± 0.027.
For R9C, the abundance fitness was -0.21 ± 0.042.
On to L65Y, for which the abundance fitness is -0.56 ± 0.053.
The same measure, in the same setting: for D39K the value was -0.441 ± 0.17; for D39T, -0.17 ± 0.11.
Take L63R: the abundance fitness turned out to be 0.096 ± 0.051.
For L63T, the abundance fitness was -0.003 ± 0.038.
For the variant L63P, the abundance fitness was -0.728 ± 0.033.
Same read-out and setting: for D67W the value was -0.661 ± 0.1; for D67P, -0.209 ± 0.077; for L41E, -0.41 ± 0.11.
Consider L41N, for which the abundance fitness is -0.481 ± 0.067.
As to L41P, the abundance fitness was -0.257 ± 0.032.
The same measure, in the same setting: for G26T the value was -0.221 ± 0.063; for G26M, -0.153 ± 0.039; for W47L, -0.488 ± 0.028.
Turning to Q68E, the abundance fitness is -0.014 ± 0.039.
As for Q68G, the abundance fitness was -0.13 ± 0.03.
For the variant L50I, the abundance fitness was -0.437 ± 0.07.
Still for that read-out and setting: for L50C the value was -0.488 ± 0.092.
On to L50E, for which the abundance fitness was -1.11 ± 0.11.
As for L30Y, the abundance fitness is -0.472 ± 0.05.
As for V29W, the abundance fitness was -0.113 ± 0.044.
On the same count and under the same terms, for V29Q the value was -0.381 ± 0.039; for V29A, -0.36 ± 0.043; for V29M, -0.104 ± 0.034.
Take K17C: the abundance fitness is -0.2 ± 0.083.
For the variant K17D, the abundance fitness is -0.175 ± 0.05.
The same measure, in the same setting: for K53Q the value was -0.146 ± 0.035.
With S36L, the abundance fitness worked out at 0.021 ± 0.025.
On to S36R, for which the abundance fitness was -0.097 ± 0.056.
S36Y: the abundance fitness was -0.062 ± 0.043.
Turning to S36F, the abundance fitness is -0.093 ± 0.041.
The same measure, in the same setting: for S36H the value was -0.062 ± 0.036; for S36P, -0.08 ± 0.028; for S36M, -0.024 ± 0.028.
For the variant I20Q, the abundance fitness was -0.202 ± 0.046.
On the same count and under the same terms, for I20V the value was -0.201 ± 0.036; for I20N, -0.453 ± 0.077; for I20C, -0.269 ± 0.065.
On to D3V, for which the abundance fitness was -0.42 ± 0.029.
On the same count and under the same terms, for D3C the value was -0.279 ± 0.047; for T51F, -0.005 ± 0.059; for E56L, -0.211 ± 0.032.
For E56W, the abundance fitness is -0.314 ± 0.039.
Take E1N: the abundance fitness was -0.067 ± 0.13.
Regarding L32Q, the abundance fitness is -0.304 ± 0.1.
On the same count and under the same terms, for L32R the value was -0.179 ± 0.052; for N18F, -0.065 ± 0.045; for N18K, 0.04 ± 0.037.
On the same count and under the same terms, for Q10P the value was -0.158 ± 0.039; for Q10Y, -0.313 ± 0.05; for G35A, -0.006 ± 0.045.
Same read-out and setting: for G35D the value was -0.125 ± 0.07.
As to G35H, the abundance fitness was -0.043 ± 0.04.
Turning to K28Q, the abundance fitness turned out to be 0.012 ± 0.033.
Turning to K28G, the abundance fitness was -0.184 ± 0.035.
On the same count and under the same terms, for K28P the value was -0.6 ± 0.04.
Regarding K28L, the abundance fitness is -0.335 ± 0.027.
Take Q52K: the abundance fitness is 0.094 ± 0.084.
Consider Q52Y, for which the abundance fitness is -0.073 ± 0.15.
On the same count and under the same terms, for R60W the value was -0.553 ± 0.095; for R60D, -0.905 ± 0.36.
Same read-out and setting: for R60P the value was -0.912 ± 0.033; for E27S, -0.006 ± 0.032; for E27K, 0.001 ± 0.032.
The same measure, in the same setting: for E27G the value was -0.072 ± 0.033; for E27V, -0.18 ± 0.025; for K12F, -0.748 ± 0.045.
Turning to K12W, the abundance fitness was -0.547 ± 0.031.

The record behind these values is the Human Domainome abundance scans (Beltran et al. 2025).
